Reference: IntAct's records for PubMed 25910212

Experiments:
[1] = target: TMEM239, Q8WW34-2
[2] = target: ldaf1_human LDAF1 (UniProt Q96B96)
[3] = target: reep6_human REEP6 (UniProt Q96HR9)
[4] = target: shlb1_human SH3GLB1 (UniProt Q9Y371)
[5] = target: praf1_human RABAC1 (UniProt Q9UI14)
[6] = target: dtx2_human DTX2 (UniProt Q86UW9)
[7] = target: tfp11_human TFIP11 (UniProt Q9UBB9)
[8] = target: AGTRAP, Q6RW13-2
[9] = target: CMTM5, Q96DZ9-2
[10] = target: UBQLN1, Q9UMX0-2
Sequence of UBQLN1, Q9UMX0-2 (Q9UMX0 other isoform, or with tags, fused parts or gaps): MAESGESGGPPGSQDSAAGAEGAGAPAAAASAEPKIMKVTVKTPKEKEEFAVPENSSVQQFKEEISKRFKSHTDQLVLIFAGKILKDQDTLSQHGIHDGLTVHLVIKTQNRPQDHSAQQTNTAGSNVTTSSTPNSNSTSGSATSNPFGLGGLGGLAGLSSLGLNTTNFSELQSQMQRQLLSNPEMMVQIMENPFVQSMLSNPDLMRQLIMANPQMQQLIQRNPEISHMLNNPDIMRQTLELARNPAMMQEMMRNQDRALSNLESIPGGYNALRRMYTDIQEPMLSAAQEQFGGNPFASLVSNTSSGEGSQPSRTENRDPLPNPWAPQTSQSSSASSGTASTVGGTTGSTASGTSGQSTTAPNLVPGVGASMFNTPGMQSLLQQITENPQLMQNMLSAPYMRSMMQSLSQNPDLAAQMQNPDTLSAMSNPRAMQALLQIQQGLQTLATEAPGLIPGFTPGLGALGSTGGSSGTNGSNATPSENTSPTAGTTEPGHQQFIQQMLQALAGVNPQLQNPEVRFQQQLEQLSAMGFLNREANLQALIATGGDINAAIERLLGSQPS

Sequence of CMTM5, Q96DZ9-2 (Q96DZ9 other isoform, or with tags, fused parts or gaps): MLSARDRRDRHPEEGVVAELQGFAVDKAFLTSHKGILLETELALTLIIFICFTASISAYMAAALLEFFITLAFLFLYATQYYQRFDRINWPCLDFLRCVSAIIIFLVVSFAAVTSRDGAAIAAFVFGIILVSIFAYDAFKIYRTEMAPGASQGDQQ
Sequence of tfp11_human TFIP11 (Q9UBB9 whole entry): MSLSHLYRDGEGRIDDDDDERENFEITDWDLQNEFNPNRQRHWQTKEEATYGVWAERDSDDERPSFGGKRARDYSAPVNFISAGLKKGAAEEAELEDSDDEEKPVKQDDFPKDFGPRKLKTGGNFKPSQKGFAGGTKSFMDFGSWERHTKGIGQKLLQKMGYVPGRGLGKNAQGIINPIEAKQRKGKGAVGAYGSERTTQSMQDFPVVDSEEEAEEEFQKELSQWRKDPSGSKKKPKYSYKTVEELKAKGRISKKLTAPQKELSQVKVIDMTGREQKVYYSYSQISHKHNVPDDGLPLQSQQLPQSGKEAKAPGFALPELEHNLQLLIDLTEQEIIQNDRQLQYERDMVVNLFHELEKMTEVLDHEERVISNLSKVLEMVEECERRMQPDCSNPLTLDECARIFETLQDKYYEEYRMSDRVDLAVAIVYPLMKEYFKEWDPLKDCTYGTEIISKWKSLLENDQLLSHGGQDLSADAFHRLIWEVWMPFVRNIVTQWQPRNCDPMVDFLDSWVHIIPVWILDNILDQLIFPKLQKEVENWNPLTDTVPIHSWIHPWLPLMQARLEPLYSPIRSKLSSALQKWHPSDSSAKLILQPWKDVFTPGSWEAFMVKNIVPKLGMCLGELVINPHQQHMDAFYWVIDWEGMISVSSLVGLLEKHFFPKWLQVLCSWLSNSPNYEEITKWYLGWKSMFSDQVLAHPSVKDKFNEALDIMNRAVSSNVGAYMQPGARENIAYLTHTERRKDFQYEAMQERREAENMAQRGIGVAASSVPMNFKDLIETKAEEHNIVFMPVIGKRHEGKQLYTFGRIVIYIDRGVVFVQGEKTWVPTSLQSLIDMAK
Sequence of dtx2_human DTX2 (Q86UW9 whole entry): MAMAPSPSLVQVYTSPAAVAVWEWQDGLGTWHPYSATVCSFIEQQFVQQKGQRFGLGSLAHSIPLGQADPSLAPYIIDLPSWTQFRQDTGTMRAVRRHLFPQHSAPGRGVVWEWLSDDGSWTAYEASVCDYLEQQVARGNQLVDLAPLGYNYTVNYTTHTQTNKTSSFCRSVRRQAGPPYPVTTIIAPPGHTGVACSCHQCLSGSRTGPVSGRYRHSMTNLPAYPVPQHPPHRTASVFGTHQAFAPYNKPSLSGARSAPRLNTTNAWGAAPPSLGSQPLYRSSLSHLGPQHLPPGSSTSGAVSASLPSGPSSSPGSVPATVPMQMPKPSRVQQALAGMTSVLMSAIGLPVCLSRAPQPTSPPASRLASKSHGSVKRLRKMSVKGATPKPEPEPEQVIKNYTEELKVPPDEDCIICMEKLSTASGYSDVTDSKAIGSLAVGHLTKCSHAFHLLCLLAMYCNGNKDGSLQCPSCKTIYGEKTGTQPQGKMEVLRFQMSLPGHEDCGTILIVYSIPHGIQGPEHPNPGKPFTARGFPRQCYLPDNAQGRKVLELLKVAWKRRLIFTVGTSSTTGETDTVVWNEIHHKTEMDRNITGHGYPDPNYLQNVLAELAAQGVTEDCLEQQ
Sequence of TMEM239, Q8WW34-2 (Q8WW34 44-195): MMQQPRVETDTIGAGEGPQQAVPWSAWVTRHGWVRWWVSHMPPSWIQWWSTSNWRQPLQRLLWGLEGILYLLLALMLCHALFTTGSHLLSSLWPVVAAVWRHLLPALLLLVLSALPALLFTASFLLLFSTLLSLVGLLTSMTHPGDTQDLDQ
Sequence of ldaf1_human LDAF1 (Q96B96 whole entry): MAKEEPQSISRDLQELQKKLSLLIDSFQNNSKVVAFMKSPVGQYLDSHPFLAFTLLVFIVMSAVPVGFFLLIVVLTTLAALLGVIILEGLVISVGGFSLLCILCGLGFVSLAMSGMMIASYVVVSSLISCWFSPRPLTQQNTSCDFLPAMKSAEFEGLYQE
Sequence of shlb1_human SH3GLB1 (Q9Y371 whole entry): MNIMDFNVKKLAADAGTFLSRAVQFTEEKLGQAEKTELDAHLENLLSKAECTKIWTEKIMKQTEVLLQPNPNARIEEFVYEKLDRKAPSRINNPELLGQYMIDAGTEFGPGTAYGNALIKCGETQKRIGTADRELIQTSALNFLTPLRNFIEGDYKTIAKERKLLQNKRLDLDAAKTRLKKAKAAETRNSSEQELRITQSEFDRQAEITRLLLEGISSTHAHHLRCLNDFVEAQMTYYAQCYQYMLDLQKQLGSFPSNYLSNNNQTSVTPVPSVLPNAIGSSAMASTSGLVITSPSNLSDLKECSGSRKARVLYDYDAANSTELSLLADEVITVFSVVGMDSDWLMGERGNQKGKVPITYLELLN
Sequence of AGTRAP, Q6RW13-2 (Q6RW13 other isoform, or with tags, fused parts or gaps): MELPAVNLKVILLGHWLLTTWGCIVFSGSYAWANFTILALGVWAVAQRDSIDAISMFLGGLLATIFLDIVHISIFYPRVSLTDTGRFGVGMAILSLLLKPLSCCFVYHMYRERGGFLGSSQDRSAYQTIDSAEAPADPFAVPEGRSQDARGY
Sequence of praf1_human RABAC1 (Q9UI14 whole entry): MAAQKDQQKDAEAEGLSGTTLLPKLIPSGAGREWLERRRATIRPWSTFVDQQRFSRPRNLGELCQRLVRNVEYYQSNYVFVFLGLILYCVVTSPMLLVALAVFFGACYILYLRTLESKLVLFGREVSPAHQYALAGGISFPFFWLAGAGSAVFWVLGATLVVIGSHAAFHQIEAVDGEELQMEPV
Sequence of reep6_human REEP6 (Q96HR9 whole entry): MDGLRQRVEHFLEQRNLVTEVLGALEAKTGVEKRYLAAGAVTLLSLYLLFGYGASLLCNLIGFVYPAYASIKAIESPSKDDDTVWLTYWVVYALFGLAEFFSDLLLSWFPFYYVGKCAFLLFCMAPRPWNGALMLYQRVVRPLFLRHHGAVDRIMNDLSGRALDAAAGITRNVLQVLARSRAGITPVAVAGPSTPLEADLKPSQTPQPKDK

Substance | effect of a mutation on the interaction [1] | effect of a mutation on the interaction [2] | effect of a mutation on the interaction [3] | effect of a mutation on the interaction [4] | effect of a mutation on the interaction [5] | effect of a mutation on the interaction [6] | effect of a mutation on the interaction [7] | effect of a mutation on the interaction [8] | effect of a mutation on the interaction [9] | effect of a mutation on the interaction [10]
Atypical kinase COQ8A, mitochondrial (Homo sapiens), Q8NI60 G272V | disrupting interaction strength | disrupting interaction strength | disrupting interaction strength | with no effect | disrupting interaction strength | with no effect | disrupting interaction strength | with no effect | with no effect | 
Atypical kinase COQ8A, mitochondrial (Homo sapiens), Q8NI60 H80Y | with no effect | with no effect | with no effect | with no effect | with no effect | with no effect | with no effect | with no effect | with no effect | 
Atypical kinase COQ8A, mitochondrial (Homo sapiens), Q8NI60 H85Q | with no effect | with no effect | with no effect | with no effect | with no effect | with no effect | with no effect | with no effect | with no effect | 
Atypical kinase COQ8A, mitochondrial (Homo sapiens), Q8NI60 Y514C | with no effect | with no effect | with no effect | with no effect | with no effect | with no effect | with no effect | with no effect | with no effect | 
Cytosolic 5'-nucleotidase 3A (Homo sapiens) (from UniProt Q9H0P0) D137V |  |  |  |  |  |  |  |  |  | with no effect
Cytosolic 5'-nucleotidase 3A (Homo sapiens) (from UniProt Q9H0P0) F36L |  |  |  |  |  |  |  |  |  | with no effect

Results, then the substance that gave them:

effect of a mutation on the interaction [1] | effect of a mutation on the interaction [2] | effect of a mutation on the interaction [3] | effect of a mutation on the interaction [4] | effect of a mutation on the interaction [5] | effect of a mutation on the interaction [6] | effect of a mutation on the interaction [7] | effect of a mutation on the interaction [8] | effect of a mutation on the interaction [9] | effect of a mutation on the interaction [10] | Substance
disrupting interaction strength | disrupting interaction strength | disrupting interaction strength | disrupting interaction strength | disrupting interaction strength | disrupting interaction strength | disrupting interaction strength | with no effect | with no effect |  | Atypical kinase COQ8A, mitochondrial (Homo sapiens), Q8NI60 E551K
disrupting interaction strength | disrupting interaction strength | disrupting interaction strength | disrupting interaction strength | disrupting interaction strength | disrupting interaction strength | disrupting interaction strength | disrupting interaction strength | disrupting interaction strength |  | Atypical kinase COQ8A, mitochondrial (Homo sapiens), Q8NI60 R213W
 |  |  |  |  |  |  |  |  | with no effect | Cytosolic 5'-nucleotidase 3A (Homo sapiens) (from UniProt Q9H0P0) C113R
